Measured values reported in PMC12016525, “The GCN4-Swi6B module mediates low nitrogen-induced cell wall remodeling in Ganoderma lucidum”.

B1: SWI6 promoter GBE probe (pSwi6-Biotin) (dsDNA)
DNA 1: GAAAGTACCAGGGCACCTGGTGAGTCTCAGTCTCGGTGCCATG
DNA 2: CATGGCACCGAGACTGAGACTCACCAGGTGCCCTGGTACTTTC
B2: m-SWI6 mutant probe (pSwi6-M-Biotin) (dsDNA)
DNA 1: GAAAGTACCAGGGATAAATTTATTATATAGTCTCGGTGCCATG
DNA 2: CATGGCACCGAGACTATATAATAAATTTATCCCTGGTACTTTC

Assays:
GCN4 [1] = target: T1, GCN4 (Ganoderma lucidum, UniProt A0A6H0YJ80 1-300); experiment: SPR; details: SPR: 10 mM HEPES pH 7.4, 150 mM NaCl, 3 mM EDTA, 0.005% P20, 25 C, SA chip, GCN4 7.81-125 nM; EMSA: Thermo 89880 kit, conditions not stated; in M (unit assumed)
T1 sequence (A0A6H0YJ80 entry or part of it): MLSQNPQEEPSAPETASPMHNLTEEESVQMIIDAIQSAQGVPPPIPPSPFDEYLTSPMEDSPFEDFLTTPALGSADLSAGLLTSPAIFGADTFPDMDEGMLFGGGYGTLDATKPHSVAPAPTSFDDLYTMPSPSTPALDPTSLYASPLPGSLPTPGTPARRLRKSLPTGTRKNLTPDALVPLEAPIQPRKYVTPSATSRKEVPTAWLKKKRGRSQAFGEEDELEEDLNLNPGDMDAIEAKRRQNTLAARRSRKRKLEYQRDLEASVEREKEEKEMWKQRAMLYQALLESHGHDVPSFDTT

GCN4 [2] = target: T1, GCN4; experiment: EMSA; SPR: 10 mM HEPES pH 7.4, 150 mM NaCl, 3 mM EDTA, 0.005% P20, 25 C, SA chip, GCN4 7.81-125 nM; EMSA: Thermo 89880 kit, conditions not stated; details: protein: recombinant; tags: His; chain copies: 2; blunt

| Molecule | Kd (M (unit not given)) (GCN4 [1]) | binding result (GCN4 [2]) |
| --- | --- | --- |
| SWI6 (GBE) SPR probe | 8.79e-08 |  |
| B1 |  | binds |
| B2 |  | no binding |
